Laboratory results taken from patent publication US20200199204A1.

Key:
Test in all cases: cell-based or functional assay
[1] = biological target: HIV-1 Env of DU422.01 (HIV-1)
[2] = biological target: HIV-1 Env of RW020.2 (HIV-1)
[3] = biological target: HIV-1 Env of RHPA.7 (HIV-1)
[4] = biological target: HIV-1 Env of UG037.8 (HIV-1)
[5] = biological target: HIV-1 Env of 0260.v5.c36 (HIV-1)
[6] = biological target: HIV-1 Env of CAP45.G3 (HIV-1)
[7] = biological target: HIV-1 Env of ZM249.1 (HIV-1)
[8] = biological target: HIV-1 Env of TRJO.58 (HIV-1)
[9] = biological target: HIV-1 Env of WITO.33 (HIV-1)
[10] = biological target: HIV-1 Env of TH976.17 (HIV-1)
[11] = biological target: HIV-1 Env of ZM109.4 (HIV-1)
[12] = biological target: HIV-1 Env of KER2018.11 (HIV-1)
[13] = biological target: HIV-1 Env of CAP256.PI (HIV-1)
[14] = biological target: HIV-1 Env of MB539.2B7 (HIV-1)
[15] = biological target: HIV-1 Env of C1080.c3 (HIV-1)
[16] = biological target: HIV-1 Env of Q259.d2.17 (HIV-1)
[17] = biological target: HIV-1 Env of CAP256.SU (HIV-1)
[18] = biological target: HIV-1 Env of Q23.17 (HIV-1)
[19] = biological target: HIV-1 Env of 96ZM651.02 (HIV-1)
[20] = biological target: HIV-1 Env of CAAN.A2 (HIV-1)
[21] = biological target: HIV-1 Env of 6535.3 (HIV-1)
[22] = biological target: HIV-1 Env of ZM233.6 (HIV-1)
[23] = biological target: HIV-1 Env of ZM135.10a (HIV-1)
[24] = biological target: HIV-1 Env of CAP210.E8 (HIV-1)
[25] = biological target: HIV-1 Env of AC10.29 (HIV-1)
[26] = biological target: HIV-1 Env of Q769.d22 (HIV-1)
[27] = biological target: HIV-1 Env of ZM214.15 (HIV-1)
[28] = biological target: HIV-1 Env of Q461.e2 (HIV-1)
[29] = biological target: HIV-1 Env of CM244.ec1 (HIV-1)
[30] = biological target: HIV-1 Env of Q168.a2 (HIV-1)
[31] = biological target: HIV-1 Env of REJO.67 (HIV-1)
[32] = biological target: HIV-1 Env of ZM53.12 (HIV-1)
[33] = biological target: HIV-1 Env of ZM197.7 (HIV-1)
[34] = biological target: HIV-1 Env of 6405.v4.c34 (HIV-1)
[35] = biological target: HIV-1 Env of SC422.8 (HIV-1)
[36] = biological target: HIV-1 Env of CAP244.D3 (HIV-1)
[37] = biological target: HIV-1 Env of TRO.11 (HIV-1)
[38] = biological target: HIV-1 Env of MB201 (HIV-1)
[39] = biological target: HIV-1 Env of Q842.d12 (HIV-1)
[40] = biological target: HIV-1 Env of DU156.12 (HIV-1)
[41] = biological target: HIV-1 Env of CNE3 (HIV-1)
[42] = biological target: HIV-1 Env of QH0692.42 (HIV-1)
[43] = biological target: HIV-1 Env of DU172.17 (HIV-1)
[44] = biological target: HIV-1 Env of THRO.18 (HIV-1)
[45] = biological target: HIV-1 Env of 3016.V5.c36 (HIV-1)
[46] = biological target: HIV-1 Env of BG505.w6m (HIV-1)
[47] = biological target: HIV-1 Env of KER2008.12 (HIV-1)
[48] = biological target: HIV-1 Env of PVO.04 (HIV-1)

CAP256-VRC26.29 (antibody)
IC50 (neutralization, TZM-bl) [1]: 0.072 µg/mL
IC50 (neutralization, TZM-bl) [2]: > 50 µg/mL
IC50 (neutralization, TZM-bl) [3]: > 50 µg/mL
IC50 (neutralization, TZM-bl) [4]: > 50 µg/mL
IC50 (neutralization, TZM-bl) [5]: > 50 µg/mL
IC50 (neutralization, TZM-bl) [6]: 0.076 µg/mL
IC50 (neutralization, TZM-bl) [7]: 0.093 µg/mL
IC50 (neutralization, TZM-bl) [8]: > 50 µg/mL
IC50 (neutralization, TZM-bl) [9]: > 50 µg/mL
IC50 (neutralization, TZM-bl) [10]: > 50 µg/mL
IC50 (neutralization, TZM-bl) [11]: > 50 µg/mL
IC50 (neutralization, TZM-bl) [12]: < 0.6 ng/mL
IC50 (neutralization, TZM-bl) [13]: > 50 µg/mL
IC50 (neutralization, TZM-bl) [14]: 13.3 µg/mL
IC50 (neutralization, TZM-bl) [15]: 0.009 µg/mL
IC50 (neutralization, TZM-bl) [16]: 0.019 µg/mL
IC50 (neutralization, TZM-bl) [17]: < 0.6 ng/mL
IC50 (neutralization, TZM-bl) [18]: 0.023 µg/mL
IC50 (neutralization, TZM-bl) [19]: > 50 µg/mL
IC50 (neutralization, TZM-bl) [20]: > 50 µg/mL
IC50 (neutralization, TZM-bl) [21]: > 50 µg/mL
IC50 (neutralization, TZM-bl) [22]: 0.003 µg/mL
IC50 (neutralization, TZM-bl) [23]: > 50 µg/mL
IC50 (neutralization, TZM-bl) [24]: < 0.6 ng/mL
IC50 (neutralization, TZM-bl) [25]: 20.4 µg/mL
IC50 (neutralization, TZM-bl) [26]: > 50 µg/mL
IC50 (neutralization, TZM-bl) [27]: 13.6 µg/mL
IC50 (neutralization, TZM-bl) [28]: 2 µg/mL
IC50 (neutralization, TZM-bl) [29]: 1.13 µg/mL
IC50 (neutralization, TZM-bl) [30]: 0.007 µg/mL
IC50 (neutralization, TZM-bl) [31]: > 50 µg/mL
IC50 (neutralization, TZM-bl) [32]: 1 ng/mL
IC50 (neutralization, TZM-bl) [33]: 0.136 µg/mL
IC50 (neutralization, TZM-bl) [34]: > 50 µg/mL
IC50 (neutralization, TZM-bl) [35]: > 50 µg/mL
IC50 (neutralization, TZM-bl) [36]: > 50 µg/mL
IC50 (neutralization, TZM-bl) [37]: > 50 µg/mL
IC50 (neutralization, TZM-bl) [38]: > 50 µg/mL
IC50 (neutralization, TZM-bl) [39]: 1.69 µg/mL
IC50 (neutralization, TZM-bl) [40]: 0.136 µg/mL
IC50 (neutralization, TZM-bl) [41]: > 50 µg/mL
IC50 (neutralization, TZM-bl) [42]: > 50 µg/mL
IC50 (neutralization, TZM-bl) [43]: > 50 µg/mL
IC50 (neutralization, TZM-bl) [44]: > 50 µg/mL
IC50 (neutralization, TZM-bl) [45]: 0.012 µg/mL
IC50 (neutralization, TZM-bl) [46]: 0.046 µg/mL
IC50 (neutralization, TZM-bl) [47]: 0.684 µg/mL
IC50 (neutralization, TZM-bl) [48]: 4 µg/mL

CAP256-VRC26.30 (antibody)
IC50 (neutralization, TZM-bl) [1]: 0.4 µg/mL
IC50 (neutralization, TZM-bl) [2]: > 50 µg/mL
IC50 (neutralization, TZM-bl) [3]: > 50 µg/mL
IC50 (neutralization, TZM-bl) [4]: > 50 µg/mL
IC50 (neutralization, TZM-bl) [5]: > 50 µg/mL
IC50 (neutralization, TZM-bl) [6]: 0.317 µg/mL
IC50 (neutralization, TZM-bl) [7]: 0.762 µg/mL
IC50 (neutralization, TZM-bl) [8]: > 50 µg/mL
IC50 (neutralization, TZM-bl) [9]: > 50 µg/mL
IC50 (neutralization, TZM-bl) [10]: > 50 µg/mL
IC50 (neutralization, TZM-bl) [11]: > 50 µg/mL
IC50 (neutralization, TZM-bl) [12]: < 0.6 ng/mL
IC50 (neutralization, TZM-bl) [13]: > 50 µg/mL
IC50 (neutralization, TZM-bl) [14]: > 50 µg/mL
IC50 (neutralization, TZM-bl) [15]: 0.073 µg/mL
IC50 (neutralization, TZM-bl) [16]: 0.107 µg/mL
IC50 (neutralization, TZM-bl) [17]: < 0.6 ng/mL
IC50 (neutralization, TZM-bl) [18]: > 50 µg/mL
IC50 (neutralization, TZM-bl) [19]: 37.8 µg/mL
IC50 (neutralization, TZM-bl) [20]: > 50 µg/mL
IC50 (neutralization, TZM-bl) [21]: > 50 µg/mL
IC50 (neutralization, TZM-bl) [22]: 0.188 µg/mL
IC50 (neutralization, TZM-bl) [23]: > 50 µg/mL
IC50 (neutralization, TZM-bl) [24]: < 0.6 ng/mL
IC50 (neutralization, TZM-bl) [25]: > 50 µg/mL
IC50 (neutralization, TZM-bl) [26]: > 50 µg/mL
IC50 (neutralization, TZM-bl) [27]: > 50 µg/mL
IC50 (neutralization, TZM-bl) [28]: > 50 µg/mL
IC50 (neutralization, TZM-bl) [29]: > 50 µg/mL
IC50 (neutralization, TZM-bl) [30]: 0.199 µg/mL
IC50 (neutralization, TZM-bl) [31]: > 50 µg/mL
IC50 (neutralization, TZM-bl) [32]: < 0.6 ng/mL
IC50 (neutralization, TZM-bl) [33]: 1 µg/mL
IC50 (neutralization, TZM-bl) [34]: > 50 µg/mL
IC50 (neutralization, TZM-bl) [35]: > 50 µg/mL
IC50 (neutralization, TZM-bl) [36]: > 50 µg/mL
IC50 (neutralization, TZM-bl) [37]: > 50 µg/mL
IC50 (neutralization, TZM-bl) [38]: > 50 µg/mL
IC50 (neutralization, TZM-bl) [39]: > 50 µg/mL
IC50 (neutralization, TZM-bl) [40]: 0.848 µg/mL
IC50 (neutralization, TZM-bl) [41]: > 50 µg/mL
IC50 (neutralization, TZM-bl) [42]: > 50 µg/mL
IC50 (neutralization, TZM-bl) [43]: > 50 µg/mL
IC50 (neutralization, TZM-bl) [44]: > 50 µg/mL
IC50 (neutralization, TZM-bl) [45]: 1.05 µg/mL
IC50 (neutralization, TZM-bl) [46]: 9.04 µg/mL
IC50 (neutralization, TZM-bl) [47]: > 50 µg/mL
IC50 (neutralization, TZM-bl) [48]: 12.6 µg/mL
